Measured values: patent US20230272086A1 (CHIA TAI TIANQING PHARMACEUTICAL GROUP, published 2023)
Changes are numbered by the printed parent chain.

T1: IL1R7/IL-18RAcP (Sino biological, 10176-H08H) (UniProt O95256 20-356)
T1 construct: Bought protein
T1 sequence (looked up): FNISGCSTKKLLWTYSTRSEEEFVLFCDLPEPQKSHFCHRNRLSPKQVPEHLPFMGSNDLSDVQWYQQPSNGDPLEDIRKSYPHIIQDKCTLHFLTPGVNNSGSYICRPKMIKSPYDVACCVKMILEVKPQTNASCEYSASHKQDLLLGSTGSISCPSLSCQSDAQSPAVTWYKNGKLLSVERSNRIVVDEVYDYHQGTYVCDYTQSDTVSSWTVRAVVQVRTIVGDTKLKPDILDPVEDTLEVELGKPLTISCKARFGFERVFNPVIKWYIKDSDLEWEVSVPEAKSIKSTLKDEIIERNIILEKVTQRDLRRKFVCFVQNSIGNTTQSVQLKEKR

T2: recombinant protein containing hST2 extracellular domain with mouse antibody heavy chain Fc tag (hST2-ECD-mFc) (human)
T2 construct: Used for SPR and for ELISA of chimeric and humanized antibodies; also called human ST2 antigen
T2 chain: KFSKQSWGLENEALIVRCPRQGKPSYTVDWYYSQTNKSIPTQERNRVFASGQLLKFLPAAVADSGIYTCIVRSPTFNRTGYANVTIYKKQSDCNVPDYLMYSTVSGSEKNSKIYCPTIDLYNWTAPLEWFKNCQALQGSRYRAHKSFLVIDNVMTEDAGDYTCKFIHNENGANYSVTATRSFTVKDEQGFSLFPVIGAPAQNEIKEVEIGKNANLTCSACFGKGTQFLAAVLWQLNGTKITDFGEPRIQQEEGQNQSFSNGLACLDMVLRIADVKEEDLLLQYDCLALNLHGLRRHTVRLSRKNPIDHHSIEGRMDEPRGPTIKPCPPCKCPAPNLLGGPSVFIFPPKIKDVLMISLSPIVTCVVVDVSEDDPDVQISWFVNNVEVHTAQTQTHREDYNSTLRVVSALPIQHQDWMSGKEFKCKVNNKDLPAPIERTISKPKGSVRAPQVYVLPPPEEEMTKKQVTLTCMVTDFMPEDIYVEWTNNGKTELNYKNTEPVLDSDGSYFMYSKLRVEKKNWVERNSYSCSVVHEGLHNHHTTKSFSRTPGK

B1: RG6149 (antibody Ab2 in CN104334582, prepared in-house) (antibody, human IgG2, kappa, V domains shown)
VH: EVQLVQSGAEVKKPGESLKISCKGSGYSFTNYWIGWVRQMPGKGLEWMGIIYPGNSDTRFSPSFQGQVTISADKSITTAYLQWSSLKASDTAMYYCARHGTSSDYYGLDVWGQGTTVTVSS
VL: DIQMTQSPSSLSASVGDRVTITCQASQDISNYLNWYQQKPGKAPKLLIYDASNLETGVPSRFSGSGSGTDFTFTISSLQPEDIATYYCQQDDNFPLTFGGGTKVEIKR
notes: Control anti-ST2 antibody
B2: Humanized 31C8-1.1 (antibody, human IgG2, kappa, V domains shown)
VH: EVQLVQSGAEVKKPGATVKISCKASGYIFIDSEMHWVQQAPGKGLEWMGAIDPETGDTVYAEKFQGRVTITADKSSSTAYMELSSLRSEDTAVYYCTGSTTDYYFAYWGQGTLVTVSS
VL: DIQMTQSPSSLSASVGDRVTITCRSSKSLLHSNGIIYLYWYQQKPGKAPKLLIYQLSNLASGVPSRFSSSGSGTDFTLTISSLQPEDFATYYCAQNLELPFTFGQGTKVEIKR
notes: also called hz31C8-1.1; hz31C81-1.1
B3: Humanized 31C8-1.2 (antibody, human IgG2, kappa, V domains shown)
VH: B2 VH with E1Q, E10K, E62K, Q65K
VL: B2 VL
notes: also called hz31C8-1.2; hz31C81-1.2
B4: Chimeric 31C8 (antibody, human IgG2, kappa, V domains shown)
VH: QVQLQQSGPELVRPGASVTLSCKASGYIFIDSEMHWVKQTPVHGLEWIGAIDPETGDTVYNQKFKGKATLTADKSSSTASMELSSLTSEDSAVYYCTGSTTDYYFAYWGQGTTLTVSS
VL: DIVMTQAAFSNPVTLGTSASISCRSSKSLLHSNGIIYLYWYLQKPGQSPQLLIYQMSNLASGVPDRFSSSGSGTDFTLRISRVEAEDVGVYYCAQNLELPFTFGSGTKLEIKR
notes: also called xi31C8
B5: GSK3772847 (antibody STLM208 in CN104411333, prepared in-house) (antibody, human IgG2, kappa, V domains shown)
VH: EVQLLESGGGLVQPGGSLRLSCAASGFTFSIYDMIWVRQAPGKGLEWVSSIRGEGGGTYYADSVKGRFTISRDNSKNTLYLQMNSLRAEDTAVYYCARDPWSTEGSFFVLDYWGQGTLVTVSS
VL: EIVLTQSPATLSLSPGERATLSCRASQSVDDDLAWYQQKPGQAPRLLIYDASNRATGIPARFSGSGSGTDFTLTISSLEPEDFAVYYCQQYITAPLTFGQGTKVEIKR
notes: Control anti-ST2 antibody

These binders were tested against T1, IL1R7/IL-18RAcP (Sino biological, …) (assay: ELISA, plate coated with 2 µg/mL receptor).
Experimental: (§1) The anti-ST2 antibodies were diluted with PBS buffer to a concentration of 1.5 mg/mL. After being treated at 72° C. for 5 min, the samples were assayed by ELISA for their binding activity for an antigen The ELISA procedure is as follows: A 96-well plate was coated with 2 µg/mL hST2-ECD-mFc as the antigen at 100 µL/well and incubated at 4° C. overnight. After the antigen not adsorbed was well washed off, the non-specific binding sites were blocked with a blocking buffer (PBST containing 1% bovine serum albumin). After the plate was washed three times with a washing buffer (PBST, PBS containing 0.05% (v/v) Tween 20), the anti-ST2 antibodies (serially diluted 3-fold from an initial concentration of 1.5 µg/mL to 8 concentrations) were added at 100 µL/well, and the plate was incubated at 37° C. for 1 h. […] After the plate was incubated at room temperature for 5 min, a stop solution (2 N H₂SO₄) was added to stop the reactions. The signals were read at 450 nm using a plate reader (PE, Envision). The data were analyzed using GraphPad Prism5, and the EC₅₀ values were calculated.
ST2 belongs to the IL1R receptor family. The cross-reactivity of the anti-ST2 antibodies with the IL1R family receptors was determined by ELISA. The IL1R family receptors include IL1R⅟CD121a (Sino biological, 10126-H08H), IL1R2/CD121b (Sino biological, 10111-H08H), IL1R3/IL1RAP (Sino biological, 10121-H08H), IL1R7/IL-18RAcP (Sino biological, 10176-H08H), IL1R8/IL1RAPL1 (Sino biological, 10177-H08H), and IL1R9/IL1RAPL2 (Sino biological, 10156-H08H). ELISA assays were performed using the proteins described above as antigens (2 µg/mL). See Example 13 for the specific ELISA procedure. No binding means that the antibody remains unbound to the antigen when at the highest concentration.

binding result | Binder
no binding | B1
no binding | B2
no binding | B3
no binding | B4

Target: T2, recombinant protein containing hST2 …
Experiment: ELISA, plate coated with hST2-ECD-mFc, antibody not heated
Experimental: as §1, with “[…],” for “After being treated at 72° C. for 5 min,”

EC50 | Binder
0.143 nM | B1
0.109 nM | B5
0.0906 nM | B2
0.092 nM | B3
0.0744 nM | B4

Target: T2, recombinant protein containing hST2 …
Experiment: ELISA, plate coated with hST2-ECD-mFc, antibody heated at 72 °C for 5 min
Experimental: as §1

EC50 | Binder
0.188 nM | B5
0.0968 nM | B2
0.11 nM | B3
0.0863 nM | B4
